From article PMC9178793, “A Direct Assay for Measuring the Activity and Inhibition of Coactivator-Associated Arginine Methyltransferase 1” (Biochemistry, 2022) come the findings set out here.

Substrate in series [1]: C[S+](CC[C@H](N)C(=O)[O-])C[C@H]1O[C@@H](n2cnc3c(N)ncnc32)[C@H](O)[C@@H]1O
In words: kinetic analysis of CARM1 substrates (KM determination, MRM LC-MS enzymatic activity assay). Format: biochemical, Mus musculus. The settings on record: other: fixed 100 μM PABP1, AdoMet 0.05–100 μM. The source says:
(§1) The Mus musculus CARM1 (mmCARM1) gene sequence corresponding to the PRMT core (residues 130–497, mmCARM1_130–497) were amplified by PCR from the original GST-CARM1 construct.[19] The sequences were cloned in the pDONR207 (Invitrogen) vector using a BP reaction (Gateway Cloning, Life Technologies). The positive clones were confirmed by sequencing (GATC). The sequences were subcloned in a pDEST20 vector using an LR reaction. The resulting recombinant protein is harboring an amino-terminal glutathione S-transferase (GST) tag followed by a Tobacco etch virus (TEV) protease cleavage site. DH10Bac competent cells containing the baculovirus genome were transformed with the pDEST20-CARM1 plasmids and plated onto LB agar media containing 15 mg·mL^–1 tetracycline, 7 mg·mL^–1 gentamicin, 50 mg·mL^–1 kanamycin, 25 mg·mL^–1 X-Gal, and 40 mg·mL^–1 IPTG. Bacmid DNA purified from recombination-positive white colonies was transfected into Sf9 cells using the Lipofectin reagent (Invitrogen). Viruses were harvested 10 days after transfection. […]
(§2) Enzyme activity assays were performed with CARM1 (286 nM corresponding to 11.68 ng/μL) in 20 mM Tris buffer (pH 8) containing 50 mM Tris NaCl, 1 mM EDTA, 3 mM MgCl2, 0.1 mg/mL BSA, and 1 mM dithiothreitol (DTT). […] The supernatant (60 μL) was transferred to a new 96-well plate and analyzed. […]

Substrate in series [2]: CSCC[C@H](NC(=O)[C@@H](NC(=O)[C@H](CO)NC(=O)[C@H](Cc1ccccc1)NC(=O)[C@@H]1CCCN1C(=O)[C@@H]1CCCN1C(=O)[C@H](CCCNC(=N)N)NC(=O)[C@@H]1CCCN1C(=O)[C@H](C)NC(=O)[C@H](C)NC(=O)[C@@H]1CCCN1C(C)=O)[C@@H](C)O)C(N)=O
The description is as above. Format: biochemical, Mus musculus. As to conditions: other: fixed 100 μM AdoMet, PABP1 456–466 0.05–100 μM.
Excerpt: as §1, §2

B1: CARM1 (Mus musculus) (protein)
chain: GHTLERSVFSERTEESSAVQYFQFYGYLSQQQNMMQDYVRTGTYQRAILQNHTDFKDKIVLDVGCGSGILSFFAAQAGARKIYAVEASTMAQHAEVLVKSNNLTDRIVVIPGKVEEVSLPEQVDIIISEPMGYMLFNERMLESYLHAKKYLKPSGNMFPTIGDVHLAPFTDEQLYMEQFTKANFWYQPSFHGVDLSALRGAAVDEYFRQPVVDTFDIRILMAKSVKYTVNFLEAKEGDLHRIEIPFKFHMLHSGLVHGLAFWFDVAFIGSIMTVWLSTAPTEPLTHWYQVRCLFQSPLFAKAGDTLSGTCLLIANKRQSYDISIVAQVDQTGSKSSNLLDLKNPFFRYTGTTPSPPPGSHYTSPSENM
notes: corresponding to the PRMT core (residues 130–497, mmCARM1_130–497) were amplified by PCR; GST (followed by TEV protease cleavage site) (N, cleaved yes); made in house; host or cells: Sf9 insect cells (baculovirus)
With B1, the Km (in general, the substrate concentration at which the rate is half of its maximum) in series [1] was 5.46 ± 0.01 µM; in series [2] it was 12.03 ± 2.28 µM.
